The record followed here is patent publication US20210301018A1 (ITABMED HK, published 2021).

In experiment [1] the target is T1, cynomolgus monkey CD19 on cynomolgus monkey B lymphocytes (cynoPBMC) (cynomolgus monkey, UniProt A0A2K5W8L9 20-557).
T1 construct: whole, on cells; also called cynoCD19; cell surface antigen CD19 on cynomolgus monkey B cells
T1 sequence: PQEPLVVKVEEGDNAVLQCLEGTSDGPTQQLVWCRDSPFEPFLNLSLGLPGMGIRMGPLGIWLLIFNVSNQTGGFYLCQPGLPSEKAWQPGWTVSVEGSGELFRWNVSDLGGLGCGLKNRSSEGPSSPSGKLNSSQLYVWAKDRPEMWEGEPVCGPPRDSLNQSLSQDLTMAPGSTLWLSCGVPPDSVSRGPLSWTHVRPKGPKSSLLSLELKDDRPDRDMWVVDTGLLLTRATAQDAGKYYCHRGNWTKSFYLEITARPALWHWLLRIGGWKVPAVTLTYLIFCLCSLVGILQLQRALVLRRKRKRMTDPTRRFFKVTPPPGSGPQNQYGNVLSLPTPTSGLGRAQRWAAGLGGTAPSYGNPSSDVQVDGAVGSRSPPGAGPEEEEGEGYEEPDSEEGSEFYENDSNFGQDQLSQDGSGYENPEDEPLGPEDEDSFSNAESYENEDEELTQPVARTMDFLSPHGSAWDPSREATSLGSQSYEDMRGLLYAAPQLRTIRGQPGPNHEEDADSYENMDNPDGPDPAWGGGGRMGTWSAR
The experiment in a line: flow cytometry, binding rate on B cells in cynomolgus monkey PBMC, detection with anti-human Ig κ light chain. How it is done:
(§1) CynoPBMC Preparation: Whole blood samples from cynomolgus monkeys were diluted with PBS buffer (Gibco), centrifuged by density gradient centrifugation using 90% Ficoll-Paque isolation buffer (obtained by diluting Ficoll-Paque with PBS, Ficoll-Paque, GE Healthcare) to obtain PBMC, washed twice with PBS, then centrifuged at room temperature, 1000 g for 10 min. Cells were collected, and resuspended in RPM′ 1640 Medium (Gibco) containing 10% FBS.
(§2) About 3.6×10⁵ PBMCs (huPBMC or cynoPBMC) per well were added to a 96-well plate. […] Cells were washed with FACS buffer once, resuspended in 50 μL FACS buffer, supplemented with Antibody PE Mouse Anti-Human CD20 (BD Pharmingen™), FITC Mouse Anti-Human CD4 (BD Pharmingen™), and APC Mouse anti-Human Ig, κ Light Chain (BD Pharmingen™), and incubated at room temperature for 45 min. 200 μL FACS buffer was finally added, and the samples were analyzed using ACCURI® C6 Cytometer (BD Biosciences).
(§3) Binding rate was plotted against the y-axis, and drug concentration was plotted against the x-axis. The curve was fitted using a 4-parameter logistic model to determine EC50.
On the technique in general: In flow cytometry, cells or beads pass a laser one at a time.

For experiment [2], the target named is T2, human CD19 on cells (human B lymphocytes; Raji, Daudi and Reh tumor cells) (human, UniProt P15391 20-556).
T2 sequence (looked up): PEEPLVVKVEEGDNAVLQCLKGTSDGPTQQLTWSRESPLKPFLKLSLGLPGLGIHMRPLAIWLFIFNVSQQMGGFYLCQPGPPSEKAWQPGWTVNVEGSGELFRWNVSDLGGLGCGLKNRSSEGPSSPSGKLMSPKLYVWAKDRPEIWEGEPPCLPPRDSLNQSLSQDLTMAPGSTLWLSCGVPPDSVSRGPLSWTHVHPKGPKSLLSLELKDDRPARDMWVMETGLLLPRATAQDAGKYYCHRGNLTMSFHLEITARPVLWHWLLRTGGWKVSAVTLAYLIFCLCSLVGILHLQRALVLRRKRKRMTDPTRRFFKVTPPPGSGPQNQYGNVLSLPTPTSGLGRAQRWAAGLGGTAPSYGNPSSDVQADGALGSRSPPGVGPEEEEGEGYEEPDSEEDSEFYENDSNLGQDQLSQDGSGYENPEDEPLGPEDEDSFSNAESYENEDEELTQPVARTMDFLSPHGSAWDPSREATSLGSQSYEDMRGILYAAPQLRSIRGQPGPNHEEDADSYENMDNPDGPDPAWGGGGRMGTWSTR
The experiment in a line: cell-based or functional assay.

Experiment [3] deals with T3, human CD3 on human T lymphocytes (huPBMC) (human, UniProt P07766 23-207).
T3 construct: whole, on cells; also called huCD3; cell surface antigen CD3 on human T cells
T3 sequence (P07766 23-207): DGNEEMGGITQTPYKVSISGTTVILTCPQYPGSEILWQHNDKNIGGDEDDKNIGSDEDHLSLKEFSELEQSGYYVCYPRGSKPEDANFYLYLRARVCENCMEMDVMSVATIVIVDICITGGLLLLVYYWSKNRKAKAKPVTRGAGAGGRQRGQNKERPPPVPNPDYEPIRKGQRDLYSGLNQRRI
The experiment can be described thus: flow cytometry, binding rate on T cells in human PBMC, detection with anti-human Ig κ light chain. The method, then:
as §2, §3

Experiment [4] addresses T4, cynomolgus monkey CD3 on cynomolgus monkey T lymphocytes (cynoPBMC) (cynomolgus monkey, UniProt Q95LI5 22-198).
T4 construct: whole, on cells; also called cynoCD3; cell surface antigen CD3 on cynomolgus monkey T cells
The experiment can be described thus: flow cytometry, binding rate on T cells in cynomolgus monkey PBMC, detection with anti-human Ig κ light chain. The method, then:
as §1, §2, §3

Experiment [5] has as its target T2, human CD19 on cells (human B …). The experiment in a line: flow cytometry, binding rate on B cells in human PBMC, detection with anti-human Ig κ light chain. How it is done: as §2, §3
Experiment [6] has as its target T5, Cynomolgus/Rhesus CD19 Protein (Fc Tag) (Sino Biological) (cynomolgus monkey / rhesus, UniProt F7F486 20-292 (rhesus entry)).
T5 construct: Bought reagent; also called cynoCD19.Fc
T5 sequence: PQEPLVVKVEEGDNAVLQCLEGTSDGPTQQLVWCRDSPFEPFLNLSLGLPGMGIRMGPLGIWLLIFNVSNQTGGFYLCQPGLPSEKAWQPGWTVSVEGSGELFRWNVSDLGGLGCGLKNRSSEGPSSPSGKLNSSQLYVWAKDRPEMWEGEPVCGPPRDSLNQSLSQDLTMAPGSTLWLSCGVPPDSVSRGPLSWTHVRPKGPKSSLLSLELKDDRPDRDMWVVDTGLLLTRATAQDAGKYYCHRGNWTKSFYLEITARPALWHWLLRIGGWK
The experiment can be described thus: BLI (Octet QKe), antigen-Fc captured on AHC sensor, ITAB2009 in solution. How it is done:
(§4) The human CD3 antigen construct (CD3εAA 1-27.Fc) and the cynomolgus monkey CD3 antigen construct (cynoCD3εAA 1-27.Fc) each consists of a peptide of amino acid residues 1-27 of CD3ε connected to a human IgG Fc. The expression of the antigen constructs is described in U.S. Pat. No. 8,846,042. The CD3 or CD19 antigen constructs (Cynomolgus/Rhesus CD19 Protein (Fc Tag), Sino Biological. Inc.; Recombinant Human CD19 Fc Chimera, R&D Systems. Inc.) were diluted to 0.02 mg/mL with dilution buffer (PBS), and then immobilized on an anti-Human Fc capture (AHC) biosensor. […] The control wells containing only PBS were also set up. The detection results were analyzed using ForteBio Data Analysis software.
Background: In BLI a coated tip is dipped into the sample, and binding shifts an interference pattern.

The target of experiment [7] is T6, Recombinant Human CD19 Fc Chimera (R&D Systems) (human, UniProt P15391 20-291).
T6 construct: Bought reagent; also called huCD19.Fc; not shown: Fc of the bought chimera
T6 sequence (looked up): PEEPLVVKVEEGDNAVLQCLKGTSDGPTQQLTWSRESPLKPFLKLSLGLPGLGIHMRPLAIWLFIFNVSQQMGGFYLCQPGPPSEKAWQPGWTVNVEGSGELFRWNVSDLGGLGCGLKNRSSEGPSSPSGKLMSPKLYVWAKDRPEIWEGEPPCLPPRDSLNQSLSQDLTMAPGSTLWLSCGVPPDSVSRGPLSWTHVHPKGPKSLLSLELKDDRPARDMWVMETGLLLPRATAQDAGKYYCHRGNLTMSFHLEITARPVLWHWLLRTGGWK
Described as above. How it is done:
as §4

In experiment [8] the target is T7, cynomolgus monkey CD3 antigen construct cynoCD3εAA 1-27.Fc (cynomolgus monkey; human, UniProt Q95LI5 22-48).
T7 construct: range 1-27
T7 chain (looked up): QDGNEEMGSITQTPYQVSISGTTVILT
The experiment is described as above. How it is done: as §4

B1: CD19×CD3 bispecific antigen binding protein ITAB2009 (bispecific antibody)
chain: EVQLVESGGGLVQPGGSLRLSCAASGFTFNTYAMNWVRQAPGKGLEWVARIRSKYNNYATYYADSVKDRFTISRDDSKNTLYLQMNSLRAEDTAVYYCVRHGNFGNSYVSWFAYWGQGTMVTVSSGGGGSGGGGSGGGGSQAVVTQEPSLTVSPGGTVTLTCRSSTGAVTTSNYANWVQQKPGQAPRGLIGGTNKRAPGTPARFSGSLLGGKAALTLSGVQPEDEAEYYCALWYSNLWVFGGGTKLTVLSGGGGSQVQLVQSGPELIKPGGSVKMSCKASGYTFTSYVMHWVRQKPGQGLEWIGYINPYNDGTKYNEKFKGRATLTSDKSSSTAYMELSSLRSEDSAVYYCARGTYYYGSRVFDYWGQGTTVTVSSASTKGPSVFPLAPSSKSTSGGTAALGCLVKDYFPEPVTVSWNSGALTSGVHTFPAVLQSSGLYSLSSVVTVPSSSLGTQTYICNVNHKPSNTKVDKKVEPKSCPPCS
light: DVVMTQSPSSIPVTLGESVSISCRSSKSLQNVNGNTYLYWFQQRPGQSPQLLIYRMSNLNSGVPDRFSGSGSGTDFTLRISGVEPEDVGVYYCMQHLEYPITFGAGTKLEIKRTVAAPSVFIFPPSDEQLKSGTASVVCLLNNFYPREAKVQWKVDNALQSGNSQESVTEQDSKDSTYSLSSTLTLSKADYEKHKVYACEVTHQGLSSPVTKSFNRGECPPCS
notes: Anti-CD3 scFv joined to the N-terminus of the VH of the anti-CD19 Fab; also called CD19×CD3 BSAP ITAB2009; ITB2009
A word on the EC50: it is the concentration at which the effect is half-maximal. As usually defined, the Kd is the constant that tells how readily two partners part at equilibrium. For B1, the EC50 in experiment [1] was determined as 1900 ng/mL; in experiment [3], 204 ng/mL; in experiment [4], 115 ng/mL; in experiment [5], 35 ng/mL. The “EC50 of CD19×CD3 BSAP mediated human PBMC cytotoxicity against tumor cells (Daudi)” value in experiment [2] was 0.06 ng/mL. Moreover, the “EC50 of CD19×CD3 BSAP mediated human PBMC cytotoxicity against tumor cells (Raji)” value in experiment [2] came out at 0.04 ng/mL. Further, in experiment [2], the “EC50 of CD19×CD3 BSAP mediated human PBMC cytotoxicity against tumor cells (Reh)” value was determined as 0.24 ng/mL. Besides, the Kd in experiment [6] is 29.6 nM; in experiment [7], 18.2 nM; in experiment [8], 12.9 nM.
